Measurements published in publication PMC6212786 (Nucleic Acids Research, 2018).

B1: T4 DNA ligase: Full-length wild-type T4 DNA ligase (residues 1–487) (protein, UniProt P00970 1-487, looked up)
chain: MILKILNEIASIGSTKQKQAILEKNKDNELLKRVYRLTYSRGLQYYIKKWPKPGIATQSFGMLTLTDMLDFIEFTLATRKLTGNAAIEELTGYITDGKKDDVEVLRRVMMRDLECGASVSIANKVWPGLIPEQPQMLASSYDEKGINKNIKFPAFAQLKADGARCFAEVRGDELDDVRLLSRAGNEYLGLDLLKEELIKMTAEARQIHPEGVLIDGELVYHEQVKKEPEGLDFLFDAYPENSKAKEFAEVAESRTASNGIANKSLKGTISEKEAQCMKFQVWDYVPLVEIYSLPAFRLKYDVRFSKLEQMTSGYDKVILIENQVVNNLDEAKVIYKKYIDQGLEGIILKNIDGLWENARSKNLYKFKEVIDVDLKIVGIYPHRKDPTKAGGFILESECGKIKVNAGSGLKDKAGVKSHELDRTRIMENQNYYIGKILECECNGWLKSDGRTDYVKLFLPIAIRLREDKTKANTFEDVFGDFHEVTGL
modifications: full-length
B2: gp44/62: T4 clamp-loader prepared by co-expressing gp44 and gp62 (protein, UniProt P04526 1-319; P04527 1-187, looked up)
Sliding-clamp-loader large …: MITVNEKEHILEQKYRPSTIDECILPAFDKETFKSITSKGKIPHIILHSPSPGTGKTTVAKALCHDVNADMMFVNGSDCKIDFVRGPLTNFASAASFDGRQKVIVIDEFDRSGLAESQRHLRSFMEAYSSNCSIIITANNIDGIIKPLQSRCRVITFGQPTDEDKIEMMKQMIRRLTEICKHEGIAIADMKVVAALVKKNFPDFRKTIGELDSYSSKGVLDAGILSLVTNDRGAIDDVLESLKNKDVKQLRALAPKYAADYSWFVGKLAEEIYSRVTPQSIIRMYEIVGENNQYHGIAANTELHLAYLFIQLACEMQWK
Sliding-clamp-loader small …: MSLFKDDIQLNEHQVAWYSKDWTAVQSAADSFKEKAENEFFEIIGAINNKTKCSIAQKDYSKFMVENALSQFPECMPAVYAMNLIGSGLSDEAHFNYLMAAVPRGKRYGKWAKLVEDSTEVLIIKLLAKRYQVNTNDAINYKSILTKNGKLPLVLKELKGLVTDDFLKEVTKNVKEQKQLKKLALEW
B3: T4LΔ(222–247)GS: internally truncated construct with a di-amino acid Gly-Ser substituted for residues 222–247 (protein)
chain: MILKILNEIASIGSTKQKQAILEKNKDNELLKRVYRLTYSRGLQYYIKKWPKPGIATQSFGMLTLTDMLDFIEFTLATRKLTGNAAIEELTGYITDGKKDDVEVLRRVMMRDLECGASVSIANKVWPGLIPEQPQMLASSYDEKGINKNIKFPAFAQLKADGARCFAEVRGDELDDVRLLSRAGNEYLGLDLLKEELIKMTAEARQIHPEGVLIDGELVYHGSAEVAESRTASNGIANKSLKGTISEKEAQCMKFQVWDYVPLVEIYSLPAFRLKYDVRFSKLEQMTSGYDKVILIENQVVNNLDEAKVIYKKYIDQGLEGIILKNIDGLWENARSKNLYKFKEVIDVDLKIVGIYPHRKDPTKAGGFILESECGKIKVNAGSGLKDKAGVKSHELDRTRIMENQNYYIGKILECECNGWLKSDGRTDYVKLFLPIAIRLREDKTKANTFEDVFGDFHEVTGL
modifications: left off: His6 (LEHHHHHH), C-terminal, kept
B4: E. coli LigA: E. coli NAD+-dependent DNA ligase (protein, UniProt P15042 1-671, looked up)
DNA ligase: MESIEQQLTELRTTLRHHEYLYHVMDAPEIPDAEYDRLMRELRELETKHPELITPDSPTQRVGAAPLAAFSQIRHEVPMLSLDNVFDEESFLAFNKRVQDRLKNNEKVTWCCELKLDGLAVSILYENGVLVSAATRGDGTTGEDITSNVRTIRAIPLKLHGENIPARLEVRGEVFLPQAGFEKINEDARRTGGKVFANPRNAAAGSLRQLDPRITAKRPLTFFCYGVGVLEGGELPDTHLGRLLQFKKWGLPVSDRVTLCESAEEVLAFYHKVEEDRPTLGFDIDGVVIKVNSLAQQEQLGFVARAPRWAVAFKFPAQEQMTFVRDVEFQVGRTGAITPVARLEPVHVAGVLVSNATLHNADEIERLGLRIGDKVVIRRAGDVIPQVVNVVLSERPEDTREVVFPTHCPVCGSDVERVEGEAVARCTGGLICGAQRKESLKHFVSRRAMDVDGMGDKIIDQLVEKEYVHTPADLFKLTAGKLTGLERMGPKSAQNVVNALEKAKETTFARFLYALGIREVGEATAAGLAAYFGTLEALEAASIEELQKVPDVGIVVASHVHNFFAEESNRNVISELLAEGVHWPAPIVINAEEIDSPFAGKTVVLTGSLSQMSRDDAKARLVELGAKVAGSVSKKTDLVIAGEAAGSKLAKAQELGIEVIDEAEMLRLLGS

Key:
[1] = test system: nicked substrates containing a single 5′-terminal ribonucleotide adjacent to the nick; conditions: cited from earlier work
DNA substrate = assay: in vitro DNA ligation activity; type: biochemical

Molecule	ligation activity on nicked substrate with 5′-terminal ribonucleotide [1]	other results
B1	better ligation activity on the same substrate, although a fraction of the adenylated intermediate fail to complete the nick-sealing reaction	
B2		DNA ligase activity of the preparation (DNA substrate; control of gp45 and gp44/62 preparations, data not shown): no detectable DNA ligase activity
B3		in vitro DNA ligation activity relative to wild-type (DNA substrate; vs wild-type T4 DNA ligase, Supplementary Figures S8, S10): comparable or slightly better
B4	ligates this substrate as well as it does a regular DNA substrate	
